{
  "source": "paper PMC9278863",
  "about": "“The two-domain elevator-type mechanism of zinc-transporting ZIP proteins” (Science Advances, 2022)",
  "proteins": {"B1": {"name": "ZIP from Bordetella bronchiseptica (BbZIP), wild type (natural protein, UniProt A0A0H3LM39 1-309, looked up)", "chain": "MNQPSSLAADLRGAWHAQAQSHPLITLGLAASAAGVVLLLVAGIVNALTGENRVHVGYAVLGGAAGFAATALGALMALGLRAISARTQDAMLGFAAGMMLAASAFSLILPGLDAAGTIVGPGPAAAAVVALGLGLGVLLMLGLDYFTPHEHERTGHQGPEAARVNRVWLFVLTIILHNLPEGMAIGVSFATGDLRIGLPLTSAIAIQDVPEGLAVALALRAVGLPIGRAVLVAVASGLMEPLGALVGVGISSGFALAYPISMGLAAGAMIFVVSHEVIPETHRNGHETTATVGLMAGFALMMFLDTALG", "notes": "density seen for residues 21-145, 165-279, 285-309 (chain A) and 18-77, 84-145, 166-219, 225-307 (chain B) of the metal-free structure; also called Zrt/Irt-like protein; WT; source: E. coli C43(DE3), purified (DDM solubilisation, HisTrap IMAC, SEC)"}},
  "target": "the molecule itself",
  "test": "crystal structure; metal-free BbZIP crystallised in lipidic cubic phase (monoolein), 100 mM NaOAc-HOAc pH 4.5, LiSO4, PEG400, 20°C; two molecules in the asymmetric unit; parallel dimers seen in the crystal packing",
  "data": [
    {"protein": "B1", "values": [
      {"measurement": "binding result", "result": "binds"}
    ]}
  ]
}
